Source: patent US20070092518A1 (published 2007)
Positions count from the first letter of the chain named.

B1: SEQ ID NO 28 (Fab, V domains shown)
VH: EVQLVESGGGLVQPGGSLRLSCAASGSTFSNHWMNWVRQAPGKGLEWIGEIRSKSSYGATSYAESVKGRFIISRDGNGNSLTLEMNSLKTEDTAEYYCAQNYYGSTPDYWGQGTLVTVS
VL: EIVLTQSPDFQSVTPKEKVTITCRASQFVGSSIHWYQQKPDQSPKLLIKYASESMSGVPSRFSGSGSGTDFTFTISSLEAEDAATYYCQQSHSWPFTFGPGTKVDIK
notes: Fab, E. coli lysate
B2: SEQ ID NO 58 (Fab, V domains shown)
VH: B1 VH with V5T, G26Q, S27F, T28I, Y57N, G58S, G76D, S80D, T82Y, P107Y
VL: B1 VL
notes: Fab, E. coli lysate
B3: SEQ ID NO 74 (Fab, V domains shown)
VH: B1 VH with V5T, G58S, G76D, G78K, Q100R
VL: B1 VL
notes: Fab, E. coli lysate
B4: SEQ ID NO 76 (Fab, V domains shown)
VH: EVQLTESGGGLVQPGGSLRLSCRASGFIFSNHYMNWVRQAPGKGLEWIGEIRSKSINGATHYAESVKGRFIISRDDNGTSLYLEMNSLKTEDTAEYYCARNYYGSTYDYWGQGTLVTVS
VL: B1 VL
notes: Fab, E. coli lysate
B5: SEQ ID NO 79 (Fab, V domains shown)
VH: B1 VH with G26Q, T28I, W33Y, S56I, S61H, G78K, S80D, Q100R
VL: B1 VL
notes: Fab, E. coli lysate
B6: SEQ ID NO 54 (Fab, V domains shown)
VH: B1 VH with V5T, T28I, W33Y, S56I, T82Y
VL: B1 VL
notes: Fab, E. coli lysate
B7: SEQ ID NO 43 (Fab, V domains shown)
VH: B1 VH with A23R, T28I, S56I, Y57N, G76D
VL: B1 VL
notes: Fab, E. coli lysate
B8: SEQ ID NO 91 (Fab, V domains shown)
VH: B4 VH with R23A, G26Q, F27S, G58S, D76G, G78K, T79N, S80D, Y107P
VL: B1 VL
notes: Fab, E. coli lysate
B9: SEQ ID NO 42 (Fab, V domains shown)
VH: B1 VH with S27F, W33Y, G58S, G76D, G78K, Q100R
VL: B1 VL
notes: Fab, E. coli lysate
B10: SEQ ID NO 52 (Fab, V domains shown)
VH: B1 VH with A23R, T28I, G58S, S61H, Q100R, P107Y
VL: B1 VL
notes: Fab, E. coli lysate
B11: SEQ ID NO 64 (Fab, V domains shown)
VH: B4 VH with R23A, G26Q, I28T, Y33W, N57Y, G78K, Y107P
VL: B1 VL
notes: Fab, E. coli lysate
B12: SEQ ID NO 49 (Fab, V domains shown)
VH: B1 VH with V5T, G26Q, S27F, T28I, S61H, T82Y, P107Y
VL: B1 VL
notes: Fab, E. coli lysate
B13: SEQ ID NO 66 (Fab, V domains shown)
VH: B4 VH with I28T, N57Y, G58S, G78K, S80D, Y82T
VL: B1 VL
notes: Fab, E. coli lysate
B14: SEQ ID NO 72 (Fab, V domains shown)
VH: B4 VH with F27S, N57Y, G58S, D76G, R100Q
VL: B1 VL
notes: Fab, E. coli lysate
B15: SEQ ID NO 87 (Fab, V domains shown)
VH: B4 VH with T5V, R23A, I28T, Y33W, I56S, G58S, D76G, G78K
VL: B1 VL
notes: Fab, E. coli lysate
B16: SEQ ID NO 46 (Fab, V domains shown)
VH: B1 VH with A23R, W33Y, S80D, T82Y
VL: B1 VL
notes: Fab, E. coli lysate
B17: SEQ ID NO 81 (Fab, V domains shown)
VH: B1 VH with A23R, W33Y, S56I, Y57N, G58S, N79T, S80D, P107Y
VL: B1 VL
notes: Fab, E. coli lysate
B18: SEQ ID NO 61 (Fab, V domains shown)
VH: B4 VH with T5V, N57Y, D76G, T79N, S80D
VL: B1 VL
notes: Fab, E. coli lysate
B19: SEQ ID NO 73 (Fab, V domains shown)
VH: B1 VH with A23R, T28I, W33Y, G76D, G78K, S80D
VL: B1 VL
notes: Fab, E. coli lysate
B20: SEQ ID NO 77 (Fab, V domains shown)
VH: B1 VH with W33Y, S56I, G58S, G76D, T82Y, P107Y
VL: B1 VL
notes: Fab, E. coli lysate
B21: SEQ ID NO 51 (Fab, V domains shown)
VH: B4 VH with I56S, N57Y, G58S, H61S, D76G, G78K, T79N, S80D, Y82T
VL: B1 VL
notes: Fab, E. coli lysate
B22: SEQ ID NO 84 (Fab, V domains shown)
VH: B1 VH with G26Q, G58S, S61H, G78K, S80D, T82Y, Q100R, P107Y
VL: B1 VL
notes: Fab, E. coli lysate
B23: SEQ ID NO 36 (Fab, V domains shown)
VH: B4 VH with T5V, R23A, G26Q, I28T, N57Y, H61S
VL: B1 VL
notes: Fab, E. coli lysate
B24: SEQ ID NO 57 (Fab, V domains shown)
VH: B4 VH with R23A, Y33W, I56S, N57Y, G58S, R100Q
VL: B1 VL
notes: Fab, E. coli lysate
B25: SEQ ID NO 67 (Fab, V domains shown)
VH: B4 VH with I28T, N57Y, G58S, D76G, G78K, S80D, Y82T, Y107P
VL: B1 VL
notes: Fab, E. coli lysate
B26: SEQ ID NO 69 (Fab, V domains shown)
VH: B4 VH with T5V, G26Q, I28T, Y33W, I56S, G58S, D76G, T79N
VL: B1 VL
notes: Fab, E. coli lysate
B27: SEQ ID NO 75 (Fab, V domains shown)
VH: B1 VH with A23R, S27F, S56I, G58S, S61H, G76D, G78K, Q100R
VL: B1 VL
notes: Fab, E. coli lysate
B28: SEQ ID NO 83 (Fab, V domains shown)
VH: B4 VH with H61S, T79N, Y107P
VL: B1 VL
notes: Fab, E. coli lysate
B29: SEQ ID NO 44 (Fab, V domains shown)
VH: B4 VH with R23A, I28T, Y33W, I56S, N57Y, G58S, G78K, S80D, Y82T
VL: B1 VL
notes: Fab, E. coli lysate
B30: SEQ ID NO 33 (Fab, V domains shown)
VH: B4 VH with T5V, F27S, I56S, G78K, T79N
VL: B1 VL
notes: Fab, E. coli lysate
B31: SEQ ID NO 45 (Fab, V domains shown)
VH: B1 VH with A23R, S27F, T28I, S56I, G58S, S61H, S80D, Q100R
VL: B1 VL
notes: Fab, E. coli lysate
B32: SEQ ID NO 40 (Fab, V domains shown)
VH: B4 VH with T5V, R23A, F27S, I28T, G58S, H61S, D76G
VL: B1 VL
notes: Fab, E. coli lysate
B33: SEQ ID NO 85 (Fab, V domains shown)
VH: B4 VH with Y33W, I56S, H61S, D76G, Y82T, R100Q
VL: B1 VL
notes: Fab, E. coli lysate
B34: SEQ ID NO 88 (Fab, V domains shown)
VH: B1 VH with S27F, Y57N, G58S, G78K, S80D, Q100R, P107Y
VL: B1 VL
notes: Fab, E. coli lysate
B35: SEQ ID NO 68 (Fab, V domains shown)
VH: B4 VH with G26Q, Y33W, G58S, G78K, T79N, S80D, Y82T
VL: B1 VL
notes: Fab, E. coli lysate
B36: SEQ ID NO 89 (Fab, V domains shown)
VH: B4 VH with T5V, G26Q, I28T, H61S, S80D
VL: B1 VL
notes: Fab, E. coli lysate
B37: SEQ ID NO 31 (Fab, V domains shown)
VH: B4 VH with R23A, G26Q, I56S, N57Y, D76G, G78K, S80D, Y82T, R100Q
VL: B1 VL
notes: Fab, E. coli lysate
B38: SEQ ID NO 65 (Fab, V domains shown)
VH: B4 VH with T5V, Y33W, N57Y, G78K, T79N, R100Q
VL: B1 VL
notes: Fab, E. coli lysate

Target: T1, human tumor necrosis factor-α (rHuTNF-alpha, Biosource) (human, UniProt P01375 77-233)
T1 construct: Bought recombinant protein coated on ELISA plates; The TNFα of the Biacore assay is not described further; also called TNFα; human TNFα
T1 sequence (P01375 77-233 limits assumed): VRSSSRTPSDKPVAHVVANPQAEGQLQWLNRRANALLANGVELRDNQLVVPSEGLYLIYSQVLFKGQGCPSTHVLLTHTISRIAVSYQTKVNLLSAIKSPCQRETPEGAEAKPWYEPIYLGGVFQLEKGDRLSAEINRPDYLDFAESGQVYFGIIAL
Assay: solid-phase ELISA, Fab lysate on coated rHuTNF-alpha
Experimental: The Fab libraries were cloned into pTrcHis2A (Cat. No. V365-20, Invitrogen, Carlsbad, Calif.). Proteins were expressed in E. coli and solid-phase ELISA was used to assess Fab binding to human TNFα. Briefly, 96-well plates were coated overnight at 4° C. with 1 μg/ml of rHuTNF-alpha (Biosource, Camarillo, Calif.) in Carbonate-bicarbonate buffer, pH9.4. After washing in PBS with 0.05% (w/v) Tween-20, the wells were blocked with 1% (w/v) BSA in PBS for 1 hour at room temperature. After washing, plates were incubated with transformed E. coli cell lysate diluted in the assay buffer (1% BSA and 0.05% Tween-20 in 10 mM PBS) for 2 hours at room temperature. Various concentrations of infliximab (0.5, 1 and 2 ng/ml) were used as positive anti-Human Kappa Light Chain Biotin/anti-penta-His Biotin control. Plates were washed and incubated with ImmunoPure Goat Anti-Human Kappa Chain, Biotin Conjugated (Cat. No. 31780, Pierce Biotechnology, Rockford, Ill.) and Penta-His Biotin Conjugate (Cat. No. 34440, QIAGEN, Valencia, Calif.) diluted 1:2000 in the assay buffer for 1 hour at room temperature. Following another washing step, plates were probed for 1 hour at room temperature with 100 μL/well of Streptavidin POD (Cat. No. 1089153, Roche Applied Science, Indianapolis, Ind.) diluted 1:4000 in the assay buffer. Plates were further washed and then incubated with 3,3′,5,5′-tetramentylbenzidine (TMB, Cat. No. 34028, Pierce Biotechnology) for 30 minutes. Substrate development was stopped by addition of 100 μL/well TMB Stop Solution (Cat. No. 50-85-05, KPL, Gaithersburg, Md.) and the absorbance was measured at 450 nm via an automated plate spectrophotometer.

Q: Does B1 bind?
A: binds

Q: Does B2 bind?
A: binds

Q: Does B3 bind?
A: binds

Q: Does B4 bind?
A: binds

Q: Does B5 bind?
A: binds

Q: Does B6 bind?
A: binds

Q: Does B7 bind?
A: binds

Q: Does B8 bind?
A: binds

Q: Does B9 bind?
A: binds

Q: Does B10 bind?
A: binds

Q: Does B11 bind?
A: binds

Q: Does B12 bind?
A: binds

Q: Does B13 bind?
A: binds

Q: Does B14 bind?
A: binds

Q: Does B15 bind?
A: binds

Q: Does B16 bind?
A: binds

Q: Does B17 bind?
A: binds

Q: Does B18 bind?
A: binds

Q: Does B19 bind?
A: binds

Q: Does B20 bind?
A: binds

Q: Does B21 bind?
A: binds

Q: Does B22 bind?
A: binds

Q: Does B23 bind?
A: binds

Q: Does B24 bind?
A: binds

Q: Does B25 bind?
A: binds

Q: Does B26 bind?
A: binds

Q: Does B27 bind?
A: binds

Q: Does B28 bind?
A: binds

Q: Does B29 bind?
A: binds

Q: Does B30 bind?
A: binds

Q: Does B31 bind?
A: binds

Q: Does B32 bind?
A: binds

Q: Does B33 bind?
A: binds

Q: Does B34 bind?
A: binds

Q: Does B35 bind?
A: binds

Q: Does B36 bind?
A: binds

Q: Does B37 bind?
A: binds

Q: Does B38 bind?
A: binds
